Experimental data: article PMC5308896, “A conformational switch regulates the ubiquitin ligase HUWE1” (eLife, 2017)

Columns and labels:
[1] = biological target: HUWE1 (3951–4374), crystallization construct with the N-terminal expression tag (human) (UniProt Q7Z6Z7); assay: SEC-MALS; proteins injected at high concentration (~350 to 400 μM; highest point of Figure 3A, Figures 4A, 4F, 4G, Table 2); Superdex 200 10/300 GL, room temperature, 20 mM HEPES pH 8.0, 250 mM NaCl, 1 mM EDTA, 5 mM DTT
[2] = biological target: HUWE1 (3951–4374), untagged (human) (UniProt Q7Z6Z7); assay: AUC; sedimentation equilibrium, dimer to monomers (monomer-dimer self-association model, Sedphat); 10 µM protein, 4°C, 10 mM HEPES pH 8.0, 200 mM NaCl, 1 mM EDTA, 1 mM β-mercaptoethanol; 9000, 13,000 and 17,000 rpm
[3] = biological target: T1, HUWE1 (3843–4374) (human, UniProt Q7Z6Z7 3843-4374); assay: SEC; HUWE1 constructs at 120 μM without and with a four-fold molar excess of p14ARF (45-75); 10% DMSO; Superdex 200 Increase 3.2/300, 4°C; co-elution of the peptide shown by SDS-PAGE; settings: both partners purified
T1 construct: source: LOBSTR RIL cells, purified (IMAC, gel filtration)
T1 sequence (looked up): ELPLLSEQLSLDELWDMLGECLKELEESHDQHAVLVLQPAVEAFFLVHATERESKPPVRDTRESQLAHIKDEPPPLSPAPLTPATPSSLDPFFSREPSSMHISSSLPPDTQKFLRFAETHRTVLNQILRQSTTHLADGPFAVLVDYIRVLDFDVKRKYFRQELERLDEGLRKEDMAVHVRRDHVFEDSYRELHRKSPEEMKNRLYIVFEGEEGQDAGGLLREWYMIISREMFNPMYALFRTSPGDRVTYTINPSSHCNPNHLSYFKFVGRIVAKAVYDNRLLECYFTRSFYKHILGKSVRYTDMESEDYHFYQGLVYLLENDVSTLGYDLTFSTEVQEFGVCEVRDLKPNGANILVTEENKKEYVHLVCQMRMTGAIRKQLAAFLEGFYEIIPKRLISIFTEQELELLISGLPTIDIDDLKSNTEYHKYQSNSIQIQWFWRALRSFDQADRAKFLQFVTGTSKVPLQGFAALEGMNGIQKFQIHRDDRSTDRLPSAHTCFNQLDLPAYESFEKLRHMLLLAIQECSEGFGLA

[4] = biological target: T1, HUWE1 (3843–4374); assay: SEC; as the SEC with p14ARF (45-75), but with p14ARF (45-64); result told only in one sentence of the methods, no data shown; settings: both partners purified
[5] = biological target: T2, HUWE1 (3951–4374), untagged (human, UniProt Q7Z6Z7 3951-4374); assay: SEC; MBP-tagged activation segment (or MBP) and HUWE1 constructs, each alone at 120 μM and as a 1.5:1 molar mixture; Superdex 200 Increase 3.2/300, 4°C, 20 mM HEPES pH 8.0, 100 mM NaCl, 1 mM EDTA, 5 mM DTT; settings: both partners purified
T2 construct: Monomer MW 49.752 kDa (AUC methods); source: LOBSTR RIL cells, purified (IMAC, TEV protease cleavage, second IMAC, gel filtration); not shown: His6, N-terminal, cleaved
T2 sequence (looked up): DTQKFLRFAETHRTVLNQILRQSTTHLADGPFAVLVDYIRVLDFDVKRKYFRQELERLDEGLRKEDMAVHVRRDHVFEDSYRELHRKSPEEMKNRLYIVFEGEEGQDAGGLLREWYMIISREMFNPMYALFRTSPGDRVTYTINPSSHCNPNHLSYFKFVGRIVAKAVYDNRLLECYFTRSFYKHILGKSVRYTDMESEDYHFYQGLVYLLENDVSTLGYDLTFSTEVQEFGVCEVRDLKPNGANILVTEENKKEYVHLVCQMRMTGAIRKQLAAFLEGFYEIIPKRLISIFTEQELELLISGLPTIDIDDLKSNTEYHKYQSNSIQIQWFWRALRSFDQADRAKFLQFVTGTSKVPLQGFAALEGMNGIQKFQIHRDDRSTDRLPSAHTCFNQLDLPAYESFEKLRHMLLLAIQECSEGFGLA

[6] = biological target: the molecule itself; assay: SEC-MALS; proteins injected at high concentration (~350 to 400 μM; highest point of Figure 3A, Figures 4A, 4F, 4G, Table 2); Superdex 200 10/300 GL, room temperature, 20 mM HEPES pH 8.0, 250 mM NaCl, 1 mM EDTA, 5 mM DTT

Q: With “HUWE1 (3951–4374), crystallization construct with the N-terminal expression tag (from UniProt Q7Z6Z7 3951-4374) (domain or fragment)” as the molecule, how does the stoichiometry N [1] read?
A: Its stoichiometry N is 2.

Q: Which Kd [2] does the source give for “HUWE1 (3951–4374), untagged (from UniProt Q7Z6Z7 3951-4374) (domain or fragment)” here?
A: The Kd was 2900 nM.

B1: p14ARF-derived peptide (residues 45–75) (peptide, UniProt Q8N726 45-75, looked up)
peptide: LVLMLLRSQRLGQQPLPRRPGHDDGQRPSGG
notes: p14ARF, human, residues 45–75; also called p14ARF (45-75); p14ARF-peptide; source: synthetic peptide, bought: Elim Biopharm
Q: Does B1 bind [3]?
A: Result: binds

B2: p14ARF-derived peptide (residues 45–64), unlabelled (peptide, UniProt Q8N726 45-64, looked up)
peptide: LVLMLLRSQRLGQQPLPRRP
notes: p14ARF, human, residues 45–64; also called p14ARF (45-64); source: synthetic peptide, bought: Elim Biopharm
Q: Does B2 bind [4]?
A: Result: binds

B3: MBP-tagged activation segment of HUWE1 (residues 3843–3902) (domain or fragment, human, UniProt Q7Z6Z7 3843-3902, looked up)
chain: ELPLLSEQLSLDELWDMLGECLKELEESHDQHAVLVLQPAVEAFFLVHATERESKPPVRD
notes: pETM41: N-terminal TEV protease-cleavable MBP-tag, C-terminal 3C protease-cleavable His6-tag; source: E. coli BL21(DE3), purified (IMAC, gel filtration); not shown: MBP, N-terminal, kept; His6, C-terminal, kept
Q: Does B3 bind [5]?
A: Result: binds

B4: HUWE1 (3896–4374) (domain or fragment, human, UniProt Q7Z6Z7 3896-4374, looked up)
chain: SKPPVRDTRESQLAHIKDEPPPLSPAPLTPATPSSLDPFFSREPSSMHISSSLPPDTQKFLRFAETHRTVLNQILRQSTTHLADGPFAVLVDYIRVLDFDVKRKYFRQELERLDEGLRKEDMAVHVRRDHVFEDSYRELHRKSPEEMKNRLYIVFEGEEGQDAGGLLREWYMIISREMFNPMYALFRTSPGDRVTYTINPSSHCNPNHLSYFKFVGRIVAKAVYDNRLLECYFTRSFYKHILGKSVRYTDMESEDYHFYQGLVYLLENDVSTLGYDLTFSTEVQEFGVCEVRDLKPNGANILVTEENKKEYVHLVCQMRMTGAIRKQLAAFLEGFYEIIPKRLISIFTEQELELLISGLPTIDIDDLKSNTEYHKYQSNSIQIQWFWRALRSFDQADRAKFLQFVTGTSKVPLQGFAALEGMNGIQKFQIHRDDRSTDRLPSAHTCFNQLDLPAYESFEKLRHMLLLAIQECSEGFGLA
notes: source: LOBSTR RIL cells, purified (IMAC, gel filtration)
Q: For B4, which “stoichiometry N” value [6] is on record?
A: Its value is 2.
